# Source: US7217686B1, “DNA sequence encoding oncofetal ferritin protein” (Gardino Investment N.V., priority 1999, dated 2007)
# Several values for one entry are separate records, joined by “and”; a condition that tells them apart may be missing. Equal values may be shown once.
# B1: OFF1: oncofetal ferritin 1 protein, purified from term placenta, termed also p43 (placental isoferritin, PLF) (protein)
# chain: MTTASTSQVRQNYHQDSEAAINRQINLELYASYVYLSMSYYFDRDDVALKNFAKYFLHQSHEEREHAEKLMKLQNQRGGRIFLQDIKKPDCDDWESGLNAMECALHLEKNVNQSLLEFPSPISPSPSCWHHYTTNRPQPQHHLLRPRRRKRPHSIPTPILIFRSP
# modifications: left off: a dimerising Fc or GST
# Experiments:
# [1] = test system: human bone marrow progenitor CFU-GM; test: CFU-GM colony assay with normal human bone marrow mononuclear cells; assay type: cell-based; settings: for number of CFU-GM colonies: scored after 14 days
# Protocol: Bone marrow samples from 11 healthy volunteer donors were processed by density gradient separation using […] (Sigma diagnostics, St. Louis, Mo., USA) to obtain a purified population of mononuclear cells. Colony assays were performed in a plating medium containing final concentrations of 0.92% methyl cellulose (M-281 powder, 4,000 centipoise, Fisher Scientific Co., Fair Lawn, N.J., USA), rehydrated in Iscove's modified Dulbecco's medium containing 36 mM sodium bicarbonate (Gibco, Grand Island, N.Y., USA), 30% fetal bovine serum (FBS) (HyClone, Logan, Utah, USA) 0.292 mg/ml glutamine, 100 U/ml penicillin and 0.01 mg/ml streptomycin (Biological Industries, Beit Haemek, Israel). Growth factors used were […] GM-CSF Leucomax (Sandoz Pharma) and 5% vol/vol human phytohemagglutinin-M (Difco Laboratories, Detroit, Mich., USA)-induced conditioned medium (Cond. Med.) p43 (PLF) was added at concentration of 1 μg/mL and in neutralization experiments, p43 (PLF) was preincubated with 10× excess of CM-H-9 MoAb at 37° C. for 30 min and the complex added to the assay as above. The colony assay medium contained 10^5 mononuclear cells/ml and each 1 ml was plated into triplicate wells (333 μl/well) of a 24 well tissue culture plate (Greiner, Germany). Water was added to spaces between cells to maximize humidity during incubation of the cultures. The cultures were incubated at 37° C. in 5% CO2 and 55% relative humidity. Plates were scored after 14 days for colonies containing more than 50 cells.
# [2] = test system: C57Bl Donor lymphocytes in transplanted Balb/c mice; test: Bone marrow transplantation C57Bl into Balb/c, flow cytometry for donor K^b positive cells; assay type: in vivo; settings: Balb/c BMT treated with OFF1 (ex vivo 1 μg/ml, 10 μg i.p. for 14 days); 6 weeks post transplantation; results not shown
# Description: Animals: C57BL/6 (H2^b) and BALB/c (H2^d) mice were purchased from Harlane. Donors and recipients were 8–10 wk of age at the time of BMT. All mice were housed in a specific pathogen-free facility in microisolator cages.
# Ex-vivo induction of anergy in mixed lymphocyte reaction (MLR): C57Bl donor bone marrow (responder) was harvested 2 days before transplantation. Balb/c recipient (stimulator) spleen cells were irradiated at a midplane dose of 3300 cGy. The cells were resuspended in RPMI-1640 medium with 5% mouse serum to 4×10^6/ml and incubated with 1 μg/ml of OFF1 for 30 min.
# The erythrocyte depleted mononuclear cell fraction of the marrow was resuspended at a concentration of 4×10^6/ml in the above medium in a Donor:Recipient ratio of 1:1. The cells were cultured in tissue culture flasks for 36 hours at 37° C. in 5% CO2, washed and resuspended to 2×10^7 cells/1 ml in PBS containing OFF1 (1 μg/ml).
# Bone marrow Transplantation (BMT): Balb/c recipients were sublethely irradiated by exposing mice to 5;5 GRAY total body irradiation from a ^137Cesium source at a dose rate of 85 cGY/min.
# Day 2 MLR cultured cells (10^7/0.5 ml) were injected intravenously to BALB/c mice pretreated with OFF1 ((10 μg) injected i.p.) (BMT+OFF1). […]
# All results were obtained using FACS (Beckton Dickenson). […] 10,000 cells were analyzed for each determination.
# [3] = test system: splenocytes from Balb/c mice transplanted with C57Bl bone marrow; test: MLR of splenocytes from bone marrow transplanted Balb/c mice against alloantigens; assay type: cell-based
# Description: (§1) Immunologic assay: Splenocytes from bone marrow transplanted (BMT) Balb/c mice were reacted as above in MLR against the donor C57Bl splenocytes or against non-related splenocytes, to measure their immunoresponsiveness to the corresponding alloantigens.
# Splenocytes obtained from Balb/c mice (K^b) treated with BMT+PBS (control) and with BMT+OFF1 were used as responder cells (R) and were reacted with C57Bl (K^b) splenocytes as stimulator cells (S) in MLR.
# [4] = test system: splenocytes from Balb/c mice transplanted with C57Bl bone marrow; test: In-vitro OFF1 treatment of splenocytes from transplanted Balb/c mice in MLR; assay type: cell-based
# Description: as §1
# In further experiments we tested the in-vitro effect of OFF1 treatment on responsiveness of splenocytes from control BMT+PBS against both donor C57Bl stimulators and against ICR stimulators.
# [5] = 11 donors, Cond. Med. 5% vol/vol, p43 (PLF) 1 μg/ml, GM-CSF 15 ng/ml
molecule,measurement,setting,value
B1,MEDIAN number of CFU-GM colonies,[1]; [5],94
same,RANGE of number of CFU-GM colonies,[1]; [5],0–748
same,mean number of CFU-GM colonies (AVG.),[1]; [5],169+/−216 and 169
same,number of CFU-GM colonies,"[1]; Bone Marrow No. 1, Cond. Med. 5% vol/vol, p43 (PLF) 1 μg/ml, GM-CSF 15 ng/ml",280
same,number of CFU-GM colonies,"[1]; Bone Marrow No. 2, Cond. Med. 5% vol/vol, p43 (PLF) 1 μg/ml, GM-CSF 15 ng/ml",748
same,number of CFU-GM colonies,"[1]; Bone Marrow No. 3, Cond. Med. 5% vol/vol, p43 (PLF) 1 μg/ml, GM-CSF 15 ng/ml",152
same,number of CFU-GM colonies,"[1]; Bone Marrow No. 4, Cond. Med. 5% vol/vol, p43 (PLF) 1 μg/ml, GM-CSF 15 ng/ml",28
same,number of CFU-GM colonies,"[1]; Bone Marrow No. 5, Cond. Med. 5% vol/vol, p43 (PLF) 1 μg/ml, GM-CSF 15 ng/ml",94
same,number of CFU-GM colonies,"[1]; Bone Marrow No. 6, Cond. Med. 5% vol/vol, p43 (PLF) 1 μg/ml, GM-CSF 15 ng/ml",6
same,number of CFU-GM colonies,"[1]; Bone Marrow No. 7, Cond. Med. 5% vol/vol, p43 (PLF) 1 μg/ml, GM-CSF 15 ng/ml",0
same,number of CFU-GM colonies,"[1]; Bone Marrow No. 8, Cond. Med. 5% vol/vol, p43 (PLF) 1 μg/ml, GM-CSF 15 ng/ml",242
same,number of CFU-GM colonies,"[1]; Bone Marrow No. 9, Cond. Med. 5% vol/vol, p43 (PLF) 1 μg/ml, GM-CSF 15 ng/ml",8
same,number of CFU-GM colonies,"[1]; Bone Marrow No. 10, Cond. Med. 5% vol/vol, p43 (PLF) 1 μg/ml, GM-CSF 15 ng/ml",210
same,number of CFU-GM colonies,"[1]; Bone Marrow No. 11, Cond. Med. 5% vol/vol, p43 (PLF) 1 μg/ml, GM-CSF 15 ng/ml",94
same,concentration giving the highest number of CFU-GM colonies,"[1]; dose response, bone marrow progenitor cells from three donors (FIG. 10)",1 μg/1 mL
same,Mean CFU-GM following preincubation with MoAb CM-H9,[1]; p43 (PLF) 1 μg/mL preincubated with 10× excess of CM-H-9 MoAb at 37° C. for 30 min,7+/−10
same,K^b positive donor cells in bone marrow and spleen,[2],development of hematopoietic chimerism
same,"P.I. (Proliferation Index), BMT + OFF1, in-vitro treatment None",[3]; Stimulator C57Bl,1.3
same,"P.I. (Proliferation Index), BMT + OFF1","[3]; Stimulator C57Bl, S/R Ratio 0",1
same,"P.I. (Proliferation Index), BMT + OFF1","[3]; Stimulator C57Bl, S/R Ratio 0.2",1.3
same,"P.I. (Proliferation Index), BMT + OFF1","[3]; Stimulator C57Bl, S/R Ratio 1",1
same,"P.I. (Proliferation Index), BMT + OFF1","[3]; Stimulator C57Bl, S/R Ratio 4",1.1
same,"P.I. (Proliferation Index), BMT + OFF1, in-vitro treatment None",[3]; Stimulator ICR,9.6
same,"P.I. (Proliferation Index), BMT + OFF1","[3]; Stimulator ICR, S/R Ratio 0",1
same,"P.I. (Proliferation Index), BMT + OFF1","[3]; Stimulator ICR, S/R Ratio 0.2",1.8
same,"P.I. (Proliferation Index), BMT + OFF1","[3]; Stimulator ICR, S/R Ratio 1",2.6
same,"P.I. (Proliferation Index), BMT + OFF1","[3]; Stimulator ICR, S/R Ratio 4",9.6
same,response of splenocytes of BMT+OFF1 chimeric mice to donor C57Bl stimulators in MLR,[3]; any S/R ratios,completely anergic
same,"P.I. (Proliferation Index), BMT + OFF1, in-vitro treatment OFF1",[4]; Stimulator C57Bl,1.3
same,"P.I. (Proliferation Index), BMT + PBS, in-vitro treatment OFF1",[4]; Stimulator C57Bl,1
same,"P.I. (Proliferation Index), BMT + OFF1, in-vitro treatment OFF1",[4]; Stimulator ICR,4.7
same,"P.I. (Proliferation Index), BMT + PBS, in-vitro treatment OFF1",[4]; Stimulator ICR,3.5
